Tests used:
[1] = system: HPLC-purified bovine NfH (phosphorylated)
[2] = system: dephosphorylated HPLC-purified bovine NfH (treated with alkaline phosphatase)

## enterokinase (EK, EC 3.4.21.9, Roche, Cat No 11 334115001)
[1]
  limited proteolysis, cleavage products seen by immunoblot: The described in vivo cleavage products can be reproduced in vitro by incubation of purified NfH with enterokinase (FIG. 2D, lane 4 and FIG. 2E, lane 8)
[2]
  limited proteolysis, cleavage products seen by immunoblot: The described in vivo cleavage products can be reproduced in vitro by incubation of purified NfH with enterokinase (FIG. 2D, lane 4 and FIG. 2E, lane 8)

Reference: patent publication US20140038834
